Among the data in the supplement of paper PMC10567573 are protein stability index values, retold here.

The chains are these.
B1: RAB40B (parent)
chain: YSLTTSSTHKRSSLRKVKLVRPPQ
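Note: lentivirally expressed fusions sorted by FACS into six bins by GFP to DsRed ratio, PSI derived from sequencing read proportions per bin multiplied by bin number.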

The variants in the series derive from B1. As to the kind of experiment: protein stability index of a GFP-peptide fusion (GPS, HEK-293T) (PSI 1-6); higher = more stable. Particulars: c terminus: a fixed tail appended.
As to YSLTTSSTHKRSSLRKVKLARPPQ [V20A], the protein stability index came to 3.54.

On to YSLTTSSTHKRSSLRKVKLRRPPQ [V20R], for which the protein stability index is 3.09. The figure for YSLTTSSTHKRSSLRKVKLTRPPQ [V20T] is 3.25; for YSLTTSSTHKRSSLRKVKLERPPQ [V20E] it is 3.56. Turning to YSLTTSSTHKRSSLRKVKLNRPPQ [V20N], the protein stability index worked out at 2.85.

As to YSLTTSSTHKRSSLRKVKLFRPPQ [V20F], the protein stability index is 2.67. Then YSLTTSSTHKRSSLRKVKLKRPPQ [V20K], with 3.7; and YSLTTSSTHKRSSLRKVKLDRPPQ [V20D], with 3.66.

Take YSLTTSSTHKRSSLRKVKLGRPPQ [V20G]: the protein stability index stood at 2.71. In the case of YSLTTSSTHKRSSLRKVKLMRPPQ [V20M], the protein stability index came out at 2.79.

For YSLTTSSTHKRSSLRKVKLLRPPQ [V20L], the protein stability index worked out at 2.71. For YSLTTSSTHKRSSLRKVKLIRPPQ [V20I], the protein stability index was found to be 2.48. For YSLTTSSTHKRSSLRKVKLHRPPQ [V20H], the protein stability index stood at 2.92. The figure for YSLTTSSTHKRSSLRKVKLSRPPQ [V20S] is 3.35.

Turning to YSLTTSSTHKRSSLRKVKLPRPPQ [V20P], the protein stability index was 3.56. Then YSLTTSSTHKRSSLRKVKLYRPPQ [V20Y], with 2.85; and YSLTTSSTHKRSSLRKVKLWRPPQ [V20W], with 2.22; and YSLTTSSTHKRSSLRKVKLQRPPQ [V20Q], with 3.09. With YSLTTSSTHKRSSLRKVKLCRPPQ [V20C], the protein stability index came to 3.25.

Regarding YSLTTSSTHKRSSLRKVKLVYPPQ [R21Y], the protein stability index turned out to be 2.4.

For the variant YSLTTSSTHKRSSLRKVKLVFPPQ [R21F], the protein stability index worked out at 2.17. For YSLTTSSTHKRSSLRKVKLVNPPQ [R21N], the protein stability index was 2.92. Then YSLTTSSTHKRSSLRKVKLVSPPQ [R21S], with 3.09; and YSLTTSSTHKRSSLRKVKLVEPPQ [R21E], with 3.41. Then YSLTTSSTHKRSSLRKVKLVAPPQ [R21A], with 3.15; and YSLTTSSTHKRSSLRKVKLVHPPQ [R21H], with 2.9. Then YSLTTSSTHKRSSLRKVKLVPPPQ [R21P], with 2.89; and YSLTTSSTHKRSSLRKVKLVDPPQ [R21D], with 3.19. On to YSLTTSSTHKRSSLRKVKLVTPPQ [R21T], for which the protein stability index was determined as 2.76. Then YSLTTSSTHKRSSLRKVKLVWPPQ [R21W], with 2.25; and YSLTTSSTHKRSSLRKVKLVCPPQ [R21C], with 2.91; and YSLTTSSTHKRSSLRKVKLVQPPQ [R21Q], with 2.95. Then YSLTTSSTHKRSSLRKVKLVVPPQ [R21V], with 2.53; and YSLTTSSTHKRSSLRKVKLVKPPQ [R21K], with 3.55; and YSLTTSSTHKRSSLRKVKLVLPPQ [R21L], with 3.61. Regarding YSLTTSSTHKRSSLRKVKLVGPPQ [R21G], the protein stability index came to 3.62. The figure for YSLTTSSTHKRSSLRKVKLVIPPQ [R21I] is 2.52; for YSLTTSSTHKRSSLRKVKLVMPPQ [R21M] it is 2.51; for YSLTTSSTHKRSSLRMVKLVRPPQ [K16M] it is 2.35.

Turning to YSLTTSSTHKRSSLREVKLVRPPQ [K16E], the protein stability index was 3.52. The figure for YSLTTSSTHKRSSLRTVKLVRPPQ [K16T] is 3.03. For the variant YSLTTSSTHKRSSLRCVKLVRPPQ [K16C], the protein stability index was determined as 2.58.

With YSLTTSSTHKRSSLRFVKLVRPPQ [K16F], the protein stability index was determined as 2.13. The figure for YSLTTSSTHKRSSLRHVKLVRPPQ [K16H] is 2.54. For the variant YSLTTSSTHKRSSLRVVKLVRPPQ [K16V], the protein stability index came out at 2.1.

On to YSLTTSSTHKRSSLRRVKLVRPPQ [K16R], for which the protein stability index came to 2.99. In the case of YSLTTSSTHKRSSLRDVKLVRPPQ [K16D], the protein stability index was found to be 3.59. The figure for YSLTTSSTHKRSSLRAVKLVRPPQ [K16A] is 2.93; for YSLTTSSTHKRSSLRYVKLVRPPQ [K16Y] it is 2.9; for YSLTTSSTHKRSSLRPVKLVRPPQ [K16P] it is 3.06. In the case of YSLTTSSTHKRSSLRGVKLVRPPQ [K16G], the protein stability index was found to be 2.81. Take YSLTTSSTHKRSSLRWVKLVRPPQ [K16W]: the protein stability index was found to be 2.14.

Consider YSLTTSSTHKRSSLRNVKLVRPPQ [K16N], for which the protein stability index came to 3.19. With YSLTTSSTHKRSSLRSVKLVRPPQ [K16S], the protein stability index stood at 2.93. Then YSLTTSSTHKRSSLRQVKLVRPPQ [K16Q], with 3.08. With YSLTTSSTHKRSSLRLVKLVRPPQ [K16L], the protein stability index was 2.35. Consider YSLTTSSTHKRSSLRIVKLVRPPQ [K16I], for which the protein stability index came to 1.95. As for YSLTTSSTHKRSDLRKVKLVRPPQ [S13D], the protein stability index is 2.58. The figure for YSLTTSSTHKRSFLRKVKLVRPPQ [S13F] is 2.12.

As for YSLTTSSTHKRSQLRKVKLVRPPQ [S13Q], the protein stability index was found to be 3.35. The figure for YSLTTSSTHKRSELRKVKLVRPPQ [S13E] is 3.21; for YSLTTSSTHKRSRLRKVKLVRPPQ [S13R] it is 3.4; for YSLTTSSTHKRSLLRKVKLVRPPQ [S13L] it is 2.45. The figure for YSLTTSSTHKRSNLRKVKLVRPPQ [S13N] is 3.21. As to YSLTTSSTHKRSWLRKVKLVRPPQ [S13W], the protein stability index is 1.69. Then YSLTTSSTHKRSMLRKVKLVRPPQ [S13M], with 2.47. For YSLTTSSTHKRSVLRKVKLVRPPQ [S13V], the protein stability index came out at 3.06. Consider YSLTTSSTHKRSCLRKVKLVRPPQ [S13C], for which the protein stability index amounted to 3.01. The figure for YSLTTSSTHKRSPLRKVKLVRPPQ [S13P] is 3.4. The figure for YSLTTSSTHKRSKLRKVKLVRPPQ [S13K] is 3.49. Then YSLTTSSTHKRSYLRKVKLVRPPQ [S13Y], with 2.53. As to YSLTTSSTHKRSGLRKVKLVRPPQ [S13G], the protein stability index stood at 2.86.

Turning to YSLTTSSTHKRSTLRKVKLVRPPQ [S13T], the protein stability index worked out at 2.4. Then YSLTTSSTHKRSHLRKVKLVRPPQ [S13H], with 3.18; and YSLTTSSTHKRSALRKVKLVRPPQ [S13A], with 3.25; and YSLTTSSTHKRSILRKVKLVRPPQ [S13I], with 2.74. Regarding YSLTTSSTHKRSSLRKVILVRPPQ [K18I], the protein stability index was 2.34. The figure for YSLTTSSTHKRSSLRKVVLVRPPQ [K18V] is 2.68; for YSLTTSSTHKRSSLRKVRLVRPPQ [K18R] it is 2.38; for YSLTTSSTHKRSSLRKVCLVRPPQ [K18C] it is 2.63. The figure for YSLTTSSTHKRSSLRKVDLVRPPQ [K18D] is 3.81; for YSLTTSSTHKRSSLRKVQLVRPPQ [K18Q] it is 3.09; for YSLTTSSTHKRSSLRKVNLVRPPQ [K18N] it is 2.98. The figure for YSLTTSSTHKRSSLRKVWLVRPPQ [K18W] is 2.32; for YSLTTSSTHKRSSLRKVTLVRPPQ [K18T] it is 2.81; for YSLTTSSTHKRSSLRKVSLVRPPQ [K18S] it is 3.06. Consider YSLTTSSTHKRSSLRKVPLVRPPQ [K18P], for which the protein stability index was 3.47. In the case of YSLTTSSTHKRSSLRKVGLVRPPQ [K18G], the protein stability index is 2.81. The figure for YSLTTSSTHKRSSLRKVFLVRPPQ [K18F] is 2.54; for YSLTTSSTHKRSSLRKVHLVRPPQ [K18H] it is 3.71; for YSLTTSSTHKRSSLRKVALVRPPQ [K18A] it is 3.2.

For YSLTTSSTHKRSSLRKVYLVRPPQ [K18Y], the protein stability index was 2.05. Then YSLTTSSTHKRSSLRKVMLVRPPQ [K18M], with 2.22; and YSLTTSSTHKRSSLRKVLLVRPPQ [K18L], with 2.49.
